± gives the uncertainty stated by the source.
Assay: amyloid nucleation score (Sup35N fusion, yeast selection) (log enrichment); library NNK1; higher = more nucleation; inactive = no reads after selection
Summary of the method: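 The nucleation score equals the log enrichment of output over input reads from DiMSum, centred on the mode score of non-aggregating sequences. It was computed only for sequences with 100 or more input reads. The reads came from Illumina sequencing of plasmid inserts from psi-negative yeast expressing Sup35N fused to peptides of 20 random codons, induced with 100 μM copper sulfate for 24 hours and grown 7 days at 30°C without adenine and uracil.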

| Substance | amyloid nucleation score |
| --- | --- |
| VLGDLVRFRAYASRAIMLSL | -0.11 ± 0.79 |
| WNHFERMEKPA | -0.639 ± 1.2 |
| FIWECGNIISVCMRIGYMKA | 1.23 ± 0.41 |
| GLRYFKLLLSEGSR | -0.209 ± 1 |
| YFRLHSFFFVESQGICVELR | -0.251 ± 0.69 |
| YAIRHLKIGSGWWSLWMSSM | -0.522 ± 0.34 |
| ICVMS | inactive |
| RLTNELLGVSIRLTSWFTFH | 0.606 ± 0.48 |
| IAAVFHCKNSLMY | 2 ± 0.2 |
| RQSSSSHSMNSGQNILPFRL | 0.279 ± 0.93 |
| LMQVVGTVGGRQCTVGWFGV | -0.523 ± 0.66 |
| SGCSRRCWLGSRPGSWGACC | 0.698 ± 0.45 |
| RGCRGSRQSVGSKR | -0.166 ± 0.31 |
| VWNNKECANFDNIWATLLIV | inactive |
| YYIRNYVRFRRS | -0.797 ± 0.48 |
| NYSSINLWPCVMLNFRYL | inactive |
| FYWHHWTNLAIIVEYILGEW | 0.571 ± 1.2 |
| QFWHYGF | -1.04 ± 2.4 |
| NRRLIIVNFVQSKDTCEWRG | 2.77 ± 0.21 |
| IMVANVSPSQKFNG | 0.346 ± 0.4 |
| GRHSWINGYKVEV | 6.938 ± 0.055 |
| LAWIGFRYRDGMKYGVHWGR | -0.522 ± 1.2 |
| WINYRRDPTAHSNSYFRVGI | 0.059 ± 0.58 |
| GSDGVCFNKNLNSWIYMLST | 0.805 ± 0.64 |
| WVNGMYQGRNEYDEKI | -0.455 ± 0.56 |
| ELDNCARLGADCKGLNAGRS | inactive |

| Substance | amyloid nucleation score |
| --- | --- |
| LPKLICIKRASLFNPFLDLM | 0.056 ± 0.24 |
| RSFFPSNRDTTRPQATFVAR | 1.31 ± 0.68 |
| SVMLLQLYMCLINFPNIPRT | 1.6 ± 0.44 |
| MTYITTGSSKYEGYKFTCMT | 0.502 ± 0.51 |
| SSTRT | 0.667 ± 0.97 |
| VEIYGCTSPDQWSVANSCTA | 0.047 ± 0.36 |
| LIMNFGGRLRVAGFGVLVMD | 2.09 ± 0.15 |
| FYDLFNVNIGLGDFKSVCFL | 2.66 ± 0.2 |
| SFDLGYPIFCKYTRT | 0.576 ± 0.52 |
| AGMAWYTPVWVSGWGQPHTE | -0.119 ± 0.38 |
| MMLSGFDIIYGIALCPLHVQ | -0.14 ± 0.3 |
| NLERKEVLSREGCICANFTR | -0.345 ± 0.45 |
| GTYSKG | 0.7 ± 0.97 |
| TFACGKYVVPFCIYVDR | -0.059 ± 0.34 |
| NHFLYLFVRYYTRLAEHVYA | -0.08 ± 0.56 |
| DHMRYSTRRWQYPTSVVLSG | 0.543 ± 0.25 |
| FKGHRHY | 0.318 ± 0.55 |
| LMWVNLTSVFVRMD | 0.14 ± 0.31 |
| GACGGKFRVYGKGLILWVRS | 0.253 ± 0.37 |
| TSYQA | -0.115 ± 0.22 |
| MIAFYIVLLPVIRGYRSGCK | inactive |
| CMVMLGSEQKFYMVVRPLKI | -0.085 ± 0.41 |
| GTCTMTKSFMIDIF | 0.235 ± 0.25 |
| IDHPTVKLIRYSAIHIALVT | 0.093 ± 0.28 |
| DMPTS | 0.45 ± 0.75 |
| CVWVKGHSRCLTTSLVRRSR | -0.022 ± 0.42 |

| Substance | amyloid nucleation score |
| --- | --- |
| IVGKQSVLYYDSVFVTWMYK | -0.509 ± 0.3 |
| LYGSNVVLSVRCGMHTTHCY | 2.81 ± 0.24 |
| RLDRWKHEMTAVSRCHKARM | 1.24 ± 0.74 |
| FKLIHAVNFVYLGYAFYAFF | 1.29 ± 0.38 |
| PYYRLHANLPDEKRSTAILI | -0.378 ± 0.55 |
| QESEMVCDLSGMAFLSGLVY | -0.442 ± 0.51 |
| AISLVAVRFMGMGEGVSDKN | 5.33 ± 0.1 |
| RLYSDAQ | -0.003 ± 0.71 |
| NILVAIL | -1.45 ± 1.4 |
| VRGSVGANGQHVPEDMTVRM | 0.786 ± 0.44 |
| GGELKARNKREGNQSSA | 0.058 ± 0.72 |
| AHCLLIALTCCRKNNKNVSC | 0.902 ± 0.44 |
| FFLNQMIILSLACIGEPGQG | 5.08 ± 0.068 |
| SVKTLLVRGILSLSIGFYMS | 0.294 ± 0.52 |
| IVWESLFNKFAITVGMLGFM | 1.63 ± 0.43 |
| FSLYAPSTPYSSMVRIRLSD | inactive |
| STMVCHDFLAMMGSCMGLCL | -0.406 ± 0.96 |
| YVIDGPSLSTCLVRV | 0.839 ± 0.5 |
| VFVSIMWQY | 1.82 ± 0.51 |
| AMIPNVRVYVVVITNISFCV | 0.736 ± 0.26 |
| RFRRSLLMYYGTTSVGLLRP | 0.664 ± 1.2 |
| LVSTYGEIQKLHGYLLGMLG | 0.002 ± 0.42 |
| PLLLNEVKRL | 0.614 ± 0.29 |
| SGWNEFTRGTTRVHWRNQYS | -1.48 ± 2.4 |
| NWLTTQNI | -0.371 ± 0.42 |
| SYPTALLKSVLFPLVVI | -0.463 ± 0.26 |

| Substance | amyloid nucleation score |
| --- | --- |
| WVSKNRSSFMGCSSFTATWT | 0.884 ± 0.69 |
| GATVNSVWSVPKQVTWSGMC | -0.138 ± 0.32 |
| SACFYTATVFFMYNSFGSNV | 5.611 ± 0.055 |
| MWWCGSHSFSFYFRLRSDWR | 0.829 ± 1 |
| HARTSRVRNDSSRAALNARW | -0.392 ± 0.36 |
| CSSHDQFSAR | -0.214 ± 0.77 |
| SEGSLLYTMWGTLVDWSSCV | -1.08 ± 1.4 |
| MLEDNLRVTTWPY | -0.407 ± 0.39 |
| LLCLLYHAGGTKRGYTTWAS | -0.133 ± 1.2 |
| HLINLSDEIQYSYCNKRMVS | inactive |
| RMNGLSGRLSTAWQFMYMWC | -0.153 ± 0.34 |
| IYTVVRAVCMGPGSGWLFRK | -1.05 ± 1.2 |
| YHWILKSCLWMVWSSVYLPI | -0.663 ± 1.7 |
| LVSVCLGCEVCIFVVYIPNP | inactive |
| NNANCMCSNTCHVFWANHAR | 6.193 ± 0.061 |
| DEWLDPEASERRRGPGDWAL | 0.55 ± 0.74 |
| VSCQHTVFKVICSYLPHLCK | 0.666 ± 0.59 |
| RLNKWWRTKDSYTGL | 0.258 ± 0.41 |
| VFQLIVTTFLSCVGFHKVMW | -0.658 ± 0.6 |
| VECAYSVTFSKMNRNTDFRV | 0.265 ± 0.35 |
| FHLRSCIRFSYLMTDWQAFQ | 0.69 ± 1 |
| FAFIDMHKGC | 1.69 ± 0.17 |
| SWDPNVSFALL | 2.93 ± 0.25 |
| FLLGRNFNLANSNFHSVICL | 0.24 ± 0.88 |
| NNLLLSYSSFYMLMFQ | 3.42 ± 0.076 |
| IADGTLTVSL | 0.609 ± 0.32 |

| Substance | amyloid nucleation score |
| --- | --- |
| TFNGFFCRCPSFKIYFHEVL | 0.825 ± 0.24 |
| HSIDLGTFDGFFKIRLSSTT | 0.598 ± 0.78 |
| KRNLRVHSTGIFRYRIWKA | -0.047 ± 0.48 |
| TVFRTSFLWHGMGRGLVR | 1.03 ± 0.59 |
| RITHWSGKLAFQTIVTISYL | 1.53 ± 0.41 |
| RDGPSK | -0.422 ± 0.33 |
| VLRCVISLQV | inactive |
| SSETCTK | -0.024 ± 0.55 |
| VMGSGLRMGLAESCVENGAS | -0.021 ± 0.31 |
| STNLLDFVGKSYVNWKKFRT | 0.104 ± 0.42 |
| YAKHCAEGYGFLGWSLWAVR | 0.106 ± 0.34 |
| ERFCQGSCCNNFMGVFIRES | 5.68 ± 0.077 |
| WYRQSAFNVLTDSLIILLVC | 4.99 ± 0.07 |
| GVEVAFDVLEETRQWPEYYR | 1.49 ± 0.49 |
| WGQTWDVFY | 0.916 ± 0.46 |
| TEFERFFKRDGYWGSRSYSR | 0.221 ± 0.59 |
| ARSSK | -0.081 ± 0.23 |
| NQYLPS | -0.126 ± 1.2 |
| RSCKLWY | -0.204 ± 0.85 |
| DFSRWIFMTHY | -1.06 ± 0.99 |
| AHFKYN | 0.271 ± 1.4 |
| FDPCYTHALWLFGDVKARCM | -0.083 ± 0.37 |

Source: the supplement of paper PMC12042874
